Assay results published in patent US20160040149A1, “Compositions Having Dicamba Decarboxylase Activity and Methods of Use” (priority 2013, published 2016).

B1: 81 (protein, listed as Verticillium dahliae)
chain: MAASTKPKVVDIHTHMYPPSYIDILTSRTAIPVVRTFPQAADPRLILLDAEQQALDAALQDPTAKPPGRPLTSHYASLDQKIHFMDTHSIDISVVSLANPWLDFIEPKEAAATARSVNDEFEAMCASQPGRLFFFAALPLTAPLPALLEAVRHVAELEHCRGVILGTSGLGSGLDDPELVPVLEAVAAAALTVFLHPHYGLPNDVWGPRASAEYGHVLPLALGFPMETTIAVARMYLAGVFDRVPALRMLLAHSGGTLPFLAGRIESCILHDGQLVAEGKVGAARRTIWDVLREQVYLDAVIYSEIGLKAAIAASGGADRLMFGTDHPFFPPLGTDEQAKKESRINAGGSRPMITGNAMINGHGGLCNHITQSDYQDVVL
B2: 89 (protein, listed as Erwinia billingiae)
chain: MATNRRDFLKNATAVMAGSTVFAGSSHFASAAAVEPAAVQPPRRIIALEEHFMLPEFVGYLHETQQNLRNGLVDKVVTPLSDFGKGRLEIMDKNGVDFAVLSLSGPGVQAEPDRVKAVRLARYANDKLATEMQKNPRRYGGFAHLAMQDPLAAANELERCVKQLHMQGGMINGETDGLYLDDRRYDVFWERVEALNVPIYIHPGNPPDYPHMFAGHPEMWGPVWSWAVETCSHALRLIFSGTFDRYPGARVILGHMGETLPIQLWRLDSRYQIANQTFAIKHPPSWYAKKNITITTSGVCNDAALRCALDSMGSENVMFSIDYPFESTEIAVNWLKTANITEQERNAVAWGNATSILRLGA
B3: 84 (protein, listed as Mycobacterium rhodesiae)
chain: MASLIALEEHYAWDPASEGNVVATWLRANNGVAYDRLYDRGPLRIEQMDAAGIDFQILSLFDPGVQDEVDAVRAVDLARRANDDLAESVRANPSRFGGFATLATQQPDAAVAEFDRAVTELGLVGGLINGHCQGRYLDDPAYEALFSRAEALGAPIYLHPTTPHPAVMDAWFAPYVGDGLHLASWGFAAETGTHVLRLIYSGLFDKFPRLQMIIGHLGEMLPFAAYRIDRYYGLGGGGTGHTLQHLPSDYLRNNFHVTTSGNFCSPALDCTLDVMGADRVMFSVDYPMDDNQTGADFLASYPMDDTNRRKVASENALRLFGDRIPAALRN
B4: 87 (protein, listed as Novosphingobium sp.)
chain: MASDIATAADLQTGGRQGYLRIATEEAFATRDQIDVYLRMVRDGTADRGMTSLWGFYAQSPSARATQIIERLLDLGEQRLADMDAAGIDKAVLALTSPGVQPLLDMEEARRIAGNANDRLAERCAAHPDRFIGMTAVAPQDPQWSAREILRGATQLGFKGVQINSHTQGRYLDEPFFDPIFRALGDVGQPLYIHPGTPPDSMIGPLLDAGLDGAIYGFGVETGMHLLRLITAGIFDRYPDLQIMVGHMGEALPYWLYRLDYMHQAGIRSQRYERMRPLKRTIAGYFRSNVLVTCSGMAWEPAIQFARQVMGEDRVMYAMDYPYQYEADEVRALDVMDLSPESKRKFFQTNAERWFDL
B5: 90 (protein)
chain: MAATIDRVLYLGNATQRRYTSATVSVPRIFGKVALEEHVGTSIWAKYNLTPPANAVVGVLNRPPTLPNTLDTIARLDDINGRLSSMNHSGIGYVIVSLSSPGIQGVHDTALAIKFSTDINDELYLKYANAYPDKFAFFATVPMQDPVAAASELERAVSLLGAKGAAINGYTDIGPPGNSTTRYLDDPINAPFWSKVAALNVPIYLHPRAPPPSQQLVYNYPNNSLSAYPGLVTGGFAYGAETAVHALRLMLSGLFDTHPNIQIILGHAAEGLPFLIHRSDTQLAAEVPGTNGPYKRPLRYYLRNNFYATLSGVRRLSTTQCTLAEMGEERVLFSVDYPFQSNEDAADWFDGVEGMSVETKRKVARGNARRLFNLTVDLDERQIDGDFM
modifications: Pyrenophora tritici-repentis
B6: 83 (protein, listed as Mycobacterium rhodesiae)
chain: MALIALEEHYAWSPVSAGNVVGSWLETHNVTAYQRLYDRGPLRLEQMDAAGIDFQILSLFDPGVQDDDDTARAVENARRANDDLAETVRAAPDRFGGFATLAPQDPDAAAAELERAVGELGLVGGLINGHTHGRYLDDPAYLGLFECAQRLGVPIYLHPTTPHPAVMDAWFAPYVKDGLHLASWGFAAETGTHALRLIYSGLFDTFPRLQMILGHLGEMLPYAAYRIDRYYGLGGGDDGGRLARLPSEYLRDNFHVTTSGNFNPVAFACALDVMGPDRLMFSVDYPMDDNVTGAEFLRNLEVDDDVRRKVAGENALQLFGDKIPRR
B7: 86 (protein, listed as Sphingopyxis alaskensis)
chain: MALGASVASREASAQMAKAPMRKIATEEAFATPELAKAWLEIARSEPNSSLDIPTGILSIFDNPRPGSNQDRFRRQLLDVDAERIRDMDEAGVDMQLLSVTIPGVQIFEPARAGELAVTTNDHLAAAIARRPTRFAGLACFAPHDPVQATREMERAVNALGLKGFIVNSHTQDLYLDDPRFAPVLEAAQSLDCPIYLHPRAPSNGMAAPFRDYSMGGSIWGFGVEAGTHAVRMILSGVFDRYPRLRIVLGHMGEALPFWMWRLDHMAARRAKDGRMKPLSLAPSEYFKRNFAVTTSGFESPDVLDLVIKVAGIENIMWAIDYPYESSRDAVTFIEGADLTASQRASIFHRNAVRHFRLS
B8: 88 (protein, listed as Starkeya novella)
chain: MARKIALEEHFTTPELAGKYVARPTQSDALFADIERRLADFDELRLEMMDRAEIDLMVLSVTTPGVQGVRDTGEAIRLARGANDFLAREVQKRPSRYAGFAHLAMQDAEAAATELERAVRELGFRGALINGQTNGHYLDEDQYAPFWERVQELDVPVYLHPGNMADSPAMFAHRPELGGPIWAWTAETAAHALRLVFGGTFTRFPGAKVILGHMGETLPFLLWRLDSRREFDLGEKLAPDALPSAIIKRNIAVTTSGVCDPAPLVAALQALSDDNVMFSVDYPYEDPQLASKFIETAPIGEETRAKVCHGNAERLLGL
B9: 85 (protein, listed as Maritimibacter alkaliphilus)
chain: MAADRKPGLVSVEEGFMIPEVVAELSRIAGGVPSMKSGPIAGPFMDDLLDIGKGRVARMDADGVAVQILALAAPGVQKFDPDTALALSRLTNDRLAEAIAAHPARFGGLAAAPPQAAREGAKELDRAITTLGLNGLIVNSHTNDLYLDDPSFWPLLEAAEALDVPVYLHPREPAAGIEGGLMAMTGFTVGWAYAVETGTHLLRMIAAGVFDRFPRLRIVLGHLGEMIPFMLDRIDNRYPFEMGVTGAKPLPRKPSDYFRDHVTVATSGMNFNAPMRAAIEVLGADKVMFAADYPMERQDEEVAKFAALDLTPDERKRIGEDNARRVFGL
B10: 78 (protein, listed as Marinobacter adhaerens)
chain: MALIDLHAHAPHPDYYDQHPHWGPAFELQSDGDIKLRVGHWVLSLGAPERKQALREAHARGETLDVQEYMAKWRDPEHRLASMDAAGQNAQVLSVPSHCYMYWAEPEFGVPFAKKVNDSLAEYCSAAPDRLMFWAHAPLNVPKEAAKEIRRACTELGAKGLVAGGSNFGGLEFDSPEMDPVWEALCDLDLPMFVHGYNQSVTWGEEANTDRYETTAIVGMNYDESKCFWYMINGGVFDRFPNLKVYITHGGGFVPYQLGRMAQTNPNLDTYHNKKPFLEYLKNFYFDVELHEVPMRQAMVEVIGADRVLYGSNFGGSDAVRHDLTDDLKLSQEDLDKIRWKNACDLLHLDPNKLGKVRG
B11: 79 (protein)
chain: MATTTTPSTLIATLESHLTPTLAFTSPTTSPTQPALHLIPPTTLTKLRNLGPGRVKDMHMLGHSRQIISHIPVAAPPQICSRFNDAIHAATMTNTAKFSVLAVLPTDGMEAAKELARCVSKYRFVGGVIGLNRGLRINGEGWEELWGLAERLRIPIMFREMWPLAFEIVDYQHHLPYSALGPILTQLHTSHTSSPLPLVRLYLSSVFDHYPSLRLVLAHPGSLPSLVPRIESLINSIPATDKPKRSFLDVWQHNIYLTTADAQDMSSLRALLEQIPVDRVLYASNYPFEERGNELMNELRESEFLTNIEWERVAWVNAETLFNLKEAGTKEARQLTTIPSSRS
modifications: Pyrenophora teres
B12: 91 (protein, listed as Botryotinia fuckeliana)
chain: MASFVCNFGKAALATLLLTPSISAADYTPQETVLNSGRPTFYDASTSIPGKIALEEHVGNDLLNGLYTVPYYPNTNEPQYSDSVYIADVGEKMLDIPSRIANMDAANISISVLTFGGPGIQGVFNATYATYAAGYVNDYLYKNYKNNANYTGRFEFWCSNALQEPSKAATELERCVKELGGVGSFVGGYTNNGGINGTANDIVYLDDPSMEPFLEKVVELDVPIYLHPRMPAPSQLLSVKGYEFLGSSPWGFSSETGAHALRLMVSGTLDKYPTLKIVLGHCGEGLPFFLPRIDQRLRHFKKELFNNTLTMEEYWLRNFYVTTAGVQDAGTLVDTIKRTGEDRVMFSVDYPFEDTVEIAGWFDRLEMNTLTKTKLAYENAKALLKLTCYVDAEKRPRIFNKHHVDDIIKHTHSPCIWTLFH
B13: 80 (protein, listed as Cordyceps militaris)
chain: MAAASTPVVVDIHTHMYPPSYIAMLEKRQTIPLVRTFPQADEPRLILLSSELAALDAALADPAAKLPGRPLSTHFASLAQKMHFMDTNGIRVSVISLANPWFDFLAPDEAPGIADAVNAEFSDMCAQHVGRLFFFAALPLSAPVDAVKASIERVKNLKYCRGIILGTSGLGKGLDDPHLLPVFEAVADAKLLVFLHPHYGLPNEVYGPRSEEYGHVLPLALGFPMETTIAVARMYMAGVFDHVRNLQMLLAHSGGTLPFLAGRIESCIVHDGHLVKTGKVPKDRRTIWTVLKEQIYLDAVIYSEVGLQAAIASSGADRLMFGTDHPFFPPIEEDVQGPWDSSRLNAQAVIKAVGEGSSDAAAVMGLNAVRVLSLKAE
B14: 82 (protein, listed as Rhodopseudomonas palustris)
chain: MAQNETPVIAIEEHYWDPEMVARFPAGENASPFSTLLTELGDVRLRAMDEAGIDVQVLSHGAPAAQKLPPDVAPELTRRVNDRLAEACARFPNRFAAFAALPTPAPEAAARELERCVRDLGFKGAMIHGLTNGLFIDDKRFWPIFEVAEKLDVPIYLHPSVPHADVTRYYYDDYAREFPTVIRPAWGFTVETATQAIRLILSRALESYPRLQIILGHLGETLPFLLWRINQALARPGQTPLDFRKQFCDHFHVTTSGFFSTPALICTMLELGIDRIMFAVDYPYVVNRDGTDWVQQLQISPDDKRKLVGGNARRLLKL
B15: 4 (protein, listed as Lactobacillus buchneri)
chain: MAKVITLEEHFSSQKLGQKMAEVLPKRPIGNVSPKMQDYMQRSLPPEAELEDVTGSRIQWMDQHQISMQILSYGNQNPQNSDPKFAVELTKLANDELAKAVAKAPDRFRAFASLPVSHPTDAAAELKRGVEELGFKGAMLVRPTSQAHPFFDDPFYLPIFEAAANLNVPVYLHPSFPDSQIIDYYYSNGPWDDKVSGILGTAGYGWHTDVGIQTVRLLLSGVFEKYPNLKLISGHWGEFASFALERMDQVMYPETNLSEPISKIYRDHVYVTPSGILTEPQLKFVKDEVGIEHLLYSIDYPYIKPENSGSFIESSPLTDEEKELFAHGNAEKLLQL

experiment: Saturation mutagenesis of SEQ ID NO:109: dicamba decarboxylation activity of point mutants (CO2 released), fold of backbone (Tables 7, 8, Megatable 1); conditions: decarboxylation activity (CO2 released) of point mutant vs unmutated backbone protein; backbone SEQ ID NO: 109

Row | Molecule | Fold Activity
1 | B1 | 1.2 fold
2 | B2 | 3.1 fold
3 | B3 | 1 fold
4 | B4 | 1.4 fold
5 | B5 | 1.7 fold
6 | B6 | 1.9 fold
7 | B7 | 1.4 fold
8 | B8 | 1.3 fold
9 | B9 | 1.4 fold
10 | B10 | 1.1 fold
11 | B11 | 0.9 fold
12 | B12 | 1.6 fold
13 | B13 | 0.8 fold
14 | B14 | 0.9 fold
15 | B15 | 1 fold
